These results are taken from paper PMC2930068 (Journal of molecular biology, 2010).

First the molecules themselves.
B6: phosphorylated-Tyr701 STAT1 (1-712), N-terminal 6-histidine tag (natural protein, UniProt P42224-2 1-712, looked up)
chain: MSQWYELQQLDSKFLEQVHQLYDDSFPMEIRQYLAQWLEKQDWEHAANDVSFATIRFHDLLSQLDDQYSRFSLENNFLLQHNIRKSKRNLQDNFQEDPIQMSMIIYSCLKEERKILENAQRFNQAQSGNIQSTVMLDKQKELDSKVRNVKDKVMCIEHEIKSLEDLQDEYDFKCKTLQNREHETNGVAKSDQKQEQLLLKKMYLMLDNKRKEVVHKIIELLNVTELTQNALINDELVEWKRRQQSACIGGPPNACLDQLQNWFTIVAESLQQVRQQLKKLEELEQKYTYEHDPITKNKQVLWDRTFSLFQQLIQSSFVVERQPCMPTHPQRPLVLKTGVQFTVKLRLLVKLQELNYNLKVKVLFDKDVNERNTVKGFRKFNILGTHTKVMNMEESTNGSLAAEFRHLQLKEQKNAGTRTNEGPLIVTEELHSLSFETQLCQPGLVIDLETTSLPVVVISNVSQLPSGWASILWYNMLVAEPRNLSFFLTPPCARWAQLSEVLSWQFSSVTKRGLNVDQLNMLGEKLLGPNASPDGLIPWTRFCKENINDKNFPFWLWIESILELIKKHLLPLWNDGCIMGFISKERERALLKDQQPGTFLLRFSESSREGAITFTWVERSQNGGEPDFHAVEPYTKKELSAVTFPDIIRNYKVMAAENIPENPLKYLYPNIDKDHAFGKYYSRPKEAPEPMELDGPKGTGYIKTELISVSEV
modifications: phosphotyrosine at 701; alkylated with N-ethyl-maleimide

The target of series [1] is B6. The series can be described thus: SPR. For orientation: SPR reads the build-up and loss of mass on a sensor chip optically.
Series [2] concerns the target T1, pSTAT1 (1-712) F77A / L78A (UniProt P42224-2 1-712, F77A | L78A, phosphotyrosine at 701).
T1 sequence (looked up): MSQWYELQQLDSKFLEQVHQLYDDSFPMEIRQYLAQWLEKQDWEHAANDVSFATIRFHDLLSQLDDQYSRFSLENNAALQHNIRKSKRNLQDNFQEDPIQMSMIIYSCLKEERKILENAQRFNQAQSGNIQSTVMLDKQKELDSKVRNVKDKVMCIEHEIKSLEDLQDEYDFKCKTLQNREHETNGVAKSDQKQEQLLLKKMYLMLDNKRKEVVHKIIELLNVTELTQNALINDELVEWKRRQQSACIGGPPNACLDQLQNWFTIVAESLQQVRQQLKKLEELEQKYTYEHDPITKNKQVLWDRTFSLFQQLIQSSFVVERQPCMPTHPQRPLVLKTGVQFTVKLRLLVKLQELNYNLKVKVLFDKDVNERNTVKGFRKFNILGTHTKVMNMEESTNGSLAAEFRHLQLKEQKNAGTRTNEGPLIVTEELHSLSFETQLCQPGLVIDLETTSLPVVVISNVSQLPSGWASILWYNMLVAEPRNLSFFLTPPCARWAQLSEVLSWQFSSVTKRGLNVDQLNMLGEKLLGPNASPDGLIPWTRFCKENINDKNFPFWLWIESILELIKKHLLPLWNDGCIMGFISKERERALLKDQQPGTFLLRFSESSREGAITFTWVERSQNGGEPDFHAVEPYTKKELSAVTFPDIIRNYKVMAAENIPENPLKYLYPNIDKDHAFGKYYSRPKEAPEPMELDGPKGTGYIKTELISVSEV
The series can be described thus: SPR.

The series “AUC” deals with the molecule itself. Kind of series: AUC.

Values joined by “and” are separate entries in the source; they are usually repeats but may differ in a detail not shown here. Equal entries are not always repeated.

B1: GST-ΔIBB-importin α5 (res. 79-538) (domain or fragment)
chain: not shown
As for B1, in series [1], the affinity, expressed as Kd, was 153 ± 16 nM; the koff was determined as 0.0218 s⁻¹; the kon was 144000 M⁻¹ s⁻¹.

B2: GST-importin α5 (res. 1-512) (domain or fragment)
chain: not shown
In series [1], B2 returned an equilibrium dissociation constant (Kd) of 166 ± 17 nM, a koff of 0.0204 s⁻¹ and a kon of 124000 M⁻¹ s⁻¹.

B3: GST-importin α5 (res. 1-538) (natural protein)
chain: not shown
As to B3, in series [2], the Kd worked out at 112 ± 22 nM, the koff was 0.0113 s⁻¹ and the on-rate constant (kon) came out at 98100 M⁻¹ s⁻¹.

B4: GST-importin α5 (res. 1-504) (domain or fragment)
chain: not shown
In the case of B4, in series [1], binding was put at a Kd of 247 ± 27 nM, the koff is 0.0243 s⁻¹ and the kon worked out at 98300 M⁻¹ s⁻¹.

B5: unphosphorylated STAT1 (1-712), N-terminal 6-histidine tag (natural protein, UniProt P42224-2 1-712, looked up)
chain: MSQWYELQQLDSKFLEQVHQLYDDSFPMEIRQYLAQWLEKQDWEHAANDVSFATIRFHDLLSQLDDQYSRFSLENNFLLQHNIRKSKRNLQDNFQEDPIQMSMIIYSCLKEERKILENAQRFNQAQSGNIQSTVMLDKQKELDSKVRNVKDKVMCIEHEIKSLEDLQDEYDFKCKTLQNREHETNGVAKSDQKQEQLLLKKMYLMLDNKRKEVVHKIIELLNVTELTQNALINDELVEWKRRQQSACIGGPPNACLDQLQNWFTIVAESLQQVRQQLKKLEELEQKYTYEHDPITKNKQVLWDRTFSLFQQLIQSSFVVERQPCMPTHPQRPLVLKTGVQFTVKLRLLVKLQELNYNLKVKVLFDKDVNERNTVKGFRKFNILGTHTKVMNMEESTNGSLAAEFRHLQLKEQKNAGTRTNEGPLIVTEELHSLSFETQLCQPGLVIDLETTSLPVVVISNVSQLPSGWASILWYNMLVAEPRNLSFFLTPPCARWAQLSEVLSWQFSSVTKRGLNVDQLNMLGEKLLGPNASPDGLIPWTRFCKENINDKNFPFWLWIESILELIKKHLLPLWNDGCIMGFISKERERALLKDQQPGTFLLRFSESSREGAITFTWVERSQNGGEPDFHAVEPYTKKELSAVTFPDIIRNYKVMAAENIPENPLKYLYPNIDKDHAFGKYYSRPKEAPEPMELDGPKGTGYIKTELISVSEV
Take B5: the “stoichiometry N” value in the series “AUC” was 2.
On the same count and under the same terms, as for B6, the figure is 2 and ~4.

One may read the Kd as the concentration at which binding is half-saturated. A higher Kd goes with weaker binding. One may read the koff as the first-order rate constant of dissociation. One may read the kon as the second-order rate constant of association. Read a low kon as slower complex formation. Broadly, the stoichiometry N is a count of units in the complex or per binding partner.
